Source: article PMC6138676, “Skeletal Muscle Dystrophy mutant of lamin A alters the structure and dynamics of the Ig fold domain” (Scientific Reports, 2018)

Molecular target: the molecule itself
Assay: SEC-MALS; 3 mg/ml protein; Superdex 200 Increase 10/300 equilibrated in 25 mM Tris-HCl pH 8.5, 250 mM NaCl; 20 °C; 30 µL injected, 0.6 mL/min

B1: Human lamin A Ig (428-552) (domain or fragment, UniProt P02545 428-552, looked up)
chain: SSFSQHARTSGRVAVEEVDEEGKFVRLRNKSNEDQSMGNWQIKRQNGDDPLLTYRFPPKFTLKAGQVVTIWAAGAGATHSPPTDLVWKAQNTWGCGNSLRTALINSTGEEVAMRKLVRSVTVVED
notes: Ig fold domain of human lamin A, residues 428-552, cloned into pQE-80L between BamHI and KpnI; For the NMR experiments the protein was 13C,15N-labelled; also called wild type Ig; Ig fold domain of lamin A; source: E. coli BL21 (DE3) pLysS, purified (His-Trap column)
stoichiometry N: 2
